From patent US5376640A, “Lipolytic enzyme inhibitors” (Nisshin Flour Milling Co., Ltd., priority 1989, dated 1994)
Like-named read-outs stand apart in the source and are kept apart here. Where a SMILES comes first, the peptide text is derived from it. Where no end group is shown, it is not given here.

Columns and labels:
[1] = biological target: T1, porcine pancreatic lipase (Sus scrofa, UniProt P00591); experiment: Assay of lipase inhibitory activity (olive oil emulsion with sodium cholate, Tris buffer pH 6.8); type: biochemical; conditions: for Activity of porcine pancreatic lipase: peptide solution 1 mg/ml in distilled water, control = 100
T1 construct: purchased Sigma Co., Ltd
T1 sequence (P00591 1-450): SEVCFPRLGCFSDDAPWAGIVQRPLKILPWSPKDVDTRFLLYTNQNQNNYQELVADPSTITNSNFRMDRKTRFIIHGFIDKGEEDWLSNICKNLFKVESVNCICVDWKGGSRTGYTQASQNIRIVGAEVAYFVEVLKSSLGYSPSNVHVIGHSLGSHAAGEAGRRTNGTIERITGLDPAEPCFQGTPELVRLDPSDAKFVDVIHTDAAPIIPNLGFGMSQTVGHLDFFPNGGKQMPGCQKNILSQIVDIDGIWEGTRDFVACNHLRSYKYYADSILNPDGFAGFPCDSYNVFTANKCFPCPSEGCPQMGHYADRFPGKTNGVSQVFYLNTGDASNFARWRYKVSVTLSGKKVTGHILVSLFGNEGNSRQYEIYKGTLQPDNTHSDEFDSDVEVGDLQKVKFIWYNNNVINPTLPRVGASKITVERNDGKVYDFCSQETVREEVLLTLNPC
Experimental: 250 mg of an olive oil, 21.5 mg of sodium cholate as a bile acid component and 30 mg of phosphatidylcholine were added to 5 ml of a 200 mM Tris buffer solution at pH 6.8 (called hereafter "Tris buffer").
(§1) The mixture was ultrasonicated to prepare an olive oil emulsion.
Porcine pancreatic lipase (manufactured by Sigma Co., Ltd.) was added to Tris buffer to prepare an enzyme solution containing 100 units porcine pancreatic lipase per ml.
(§2) 100 μl of an olive oil emulsion as prepared above were used as a substrate.
(§3) 50 μl of Tris buffer was added to the substrate to prepare an emulsion for control sample. Each 50 ml of the protein(polypeptide)-containing solutions as prepared above was added to 100 μl of the substrate to prepare six emulsions for test sample. All of the emulsions were incubated for 5 min. To each of those emulsions was added 50 μl of the lipase solution as prepared above. The resulting mixture was incubated at 37° C. for one hour, subsequently to which were added 3 ml of the same extraction solvent as used in Example 1. After being shaken for 5 min., the mixture was centrifuged at 3000 rpm for 5 min. The upper layer was removed with an aspirator and to the remaining solution was added 1 ml of the same copper reagent as used in Example 1. The mixture was shaken for 5 min. and centrifuged at 3000 rpm for 5 min. 0.5 ml of a solution was taken from the upper layer and to the solution was added 0.5 ml of the same color developing agent as used in Example 1.
The resulting solutions for control and test samples were measured for the absorbance at 480 nm (A480) using a photometer to determine the amount of the free fatty acids as formed, i.e., the activity of the porcine pancreatic lipase. […]
Lysine oligomers having a degree of polymerization of 2-5 as shown in Table 6 below were prepared using a peptide synthesizer (Biolynx 4170, LKB-Pharmacia Co., Ltd.). Each of the oligomers was purified by high performance liquid chromatography. Each of the purified oligomers was added to distilled water to make up to 1 μmol/ml. […] lysine oligomer-containing solutions were thus prepared.
50 μl of Tris buffer was added to the substrate to prepare an emulsion for control sample. Each 50 μof the lysine oligomer-containing solutions as prepared above was added to 100 μl of the substrate to prepare six emulsions for test sample. After incubating the emulsions for 5 min., there was added 50 μl of a lipase solution containing 100 units of porcine pancreatic lipase per ml as prepared in the same way as in Example 4. The resulting mixture was incubated at 37 ° C. for one hour.

[2] = biological target: Porcine pancreatic lipase (porcine) (UniProt P00591)
[3] = biological target: Porcine pancreatic lipase (porcine) (UniProt P00591); remark: listed apart in the source
[4] = biological target: Porcine pancreatic lipase (porcine) (UniProt P00591); remark: listed apart in the source
[5] = biological target: Cholesterol esterase isolated from porcine pancreas (porcine)
[6] = biological target: Porcine pancreatic lipase (porcine) (UniProt P00591); remark: listed apart in the source
[7] = biological target: T1, porcine pancreatic lipase; experiment: Assay of lipase inhibitory activity of proteins (olive oil emulsion with sodium cholate, potassium phosphate buffer pH 6.8); type: biochemical; conditions: for Activity of porcine pancreatic lipase: % of control; for Activity of porcine pancreatic lipase (%): protein solution 4 mg/ml, % of control Abs480, sodium cholate present, 37° C., one hour
Experimental: 250 mg of an olive oil, 21.5 mg of sodium cholate as a bile acid component and 30 mg of phosphatidylcholine were added to 5 ml of a 300 mM potassium phosphate buffer solution at pH 6.8 (called hereafter "potassium phosphate buffer").
as §1
Porcine pancreatic lipase (manufactured by Sigma Co., Ltd.) was added to the potassium phosphate buffer solution to prepare a lipase solution containing 100 units porcine pancreatic lipase per ml.
as §2
50 μl of potassium phosphate buffer was added to the substrate to prepare an emulsion for control sample. Each 50 μl of the protein(polypeptide)-containing solutions as prepared above was added to 100 μl of the substrate to prepare six emulsions for test samples. All of the emulsions were incubated for 5 min. To each of those emulsions was added 50 μl of the lipase solution as prepared above. The resulting mixture was incubated at 37° C. for one hour, subsequently to which were added 3 ml of an extraction solvent (chloroform:methanol:n-heptane=49:1:49). After being shaken for 5 min., the mixture was centrifuged at 3000 rpm for 5 min. The upper layer was removed with an aspirator and to the remaining solution was added 1 ml of a copper reagent (0.45M triethanol amine, 0.05N acetic acid, 3,4% copper sulfate pentahydrate and 20% sodium chloride). The mixture was shaken for 5 min. and centrifuged at 3000 rpm for 5 min. 0.5 ml of a solution was taken from the upper layer and to the solution was added 0.5 ml of a color developing agent (a solution of 0.1% bathocuproine and 0.05% butyl hydroxyanisole in the above extraction solvent).
The resulting solutions for control and test samples were measured for the absorbance at 480 nm (A480) using a photometer to determine the amount of the free fatty acids as formed, i.e., the activity of the porcine pancreatic lipase.

[8] = biological target: cholesterol esterase isolated from porcine pancreas (Sus scrofa, UniProt A0A286ZKB1); conditions: protein solution 4 mg/ml; % of control Abs480; sodium cholate present; 37° C., one hour
Chain of cholesterol esterase isolated from porcine pancreas (A0A286ZKB1 1-682): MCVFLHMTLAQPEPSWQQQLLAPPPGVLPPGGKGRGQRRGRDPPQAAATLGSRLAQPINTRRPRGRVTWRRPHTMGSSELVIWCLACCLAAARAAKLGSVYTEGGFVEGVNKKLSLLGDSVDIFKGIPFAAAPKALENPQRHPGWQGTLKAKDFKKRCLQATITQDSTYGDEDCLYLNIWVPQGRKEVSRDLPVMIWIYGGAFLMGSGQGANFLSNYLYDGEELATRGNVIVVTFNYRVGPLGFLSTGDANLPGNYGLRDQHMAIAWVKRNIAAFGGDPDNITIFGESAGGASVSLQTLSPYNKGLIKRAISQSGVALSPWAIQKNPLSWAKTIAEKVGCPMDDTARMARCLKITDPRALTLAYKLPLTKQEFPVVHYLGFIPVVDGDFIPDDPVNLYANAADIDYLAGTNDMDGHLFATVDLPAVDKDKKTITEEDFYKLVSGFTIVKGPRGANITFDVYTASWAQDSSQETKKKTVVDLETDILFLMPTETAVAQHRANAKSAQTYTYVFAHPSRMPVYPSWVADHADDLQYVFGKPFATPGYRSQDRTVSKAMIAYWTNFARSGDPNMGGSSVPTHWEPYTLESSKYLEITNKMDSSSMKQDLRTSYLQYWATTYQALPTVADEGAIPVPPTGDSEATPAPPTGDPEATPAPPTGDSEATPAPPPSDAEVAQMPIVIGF
Experimental: as §2
as §3, with “potassium phosphate” for “Tris”, “Each 50 ml of the protein(polypeptide)-containing solutions as prepared above was added to 100 μl of the substrate to prepare six emulsions for test sample.” left out

[9] = biological target: Porcine pancreatic lipase (porcine) (UniProt P00591); remark: listed apart in the source
[10] = biological target: Porcine pancreatic lipase (porcine) (UniProt P00591); remark: listed apart in the source
[11] = lysine oligomer solution 1 μmol/ml, % of control
[12] = solution of 1 mg in 10 ml Tris buffer, % of control Abs480, sodium cholate present

NCCCC[C@H](NC(=O)[C@@H](N)CCCCN)C(=O)O [α-(L-lysine)2]
Activity of porcine pancreatic lipase (%) [1, 11]: 103.6%

α-poly-L-lysine hydrochloride
Activity of porcine pancreatic lipase [1]: 1.6 | Activity of porcine pancreatic lipase (%) [1, 12]: 6.9%

poly-L-arginine
Activity of porcine pancreatic lipase (%) [1, 12]: 16.5%

NCCCC[C@H](N)C(=O)NCCCC[C@H](N)C(=O)NCCCC[C@H](N)C(=O)NCCCC[C@H](N)C(=O)O [ε-(L-lysine)4]
Activity of porcine pancreatic lipase (%) [1, 11]: 53.8%

Protamine
Activity of porcine pancreatic lipase (%) [1, 12]: 1.3%

α-(L-lysine)2 (peptide)
Activity of porcine pancreatic lipase (%) [2]: 104 % of control

NCCCC[C@H](N)C(=O)NCCCC[C@H](N)C(=O)NCCCC[C@H](N)C(=O)O [ε-(L-lysine)3]
Activity of porcine pancreatic lipase (%) [1, 11]: 89.0%

Histone H2A (H6881, Sigma Co., Ltd.)
Activity of porcine pancreatic lipase (%), Tris buffer [3]: 3.7 % of control

Poly-L-arginine (P3892, Sigma Co., Ltd.) (peptide)
Activity of porcine pancreatic lipase (%), Tris buffer [3]: 16.5 % of control

ε-(L-lysine)5 (SEQ ID NO: 7) (peptide)
Activity of porcine pancreatic lipase (%) [2]: 3.1 % of control

β-lactoglobulin (L0130, Sigma Co., Ltd.) (from UniProt P02754)
Activity of porcine pancreatic lipase (%) [4]: 104 % of control | Activity of cholesterol esterase (%) [5]: 89.9 % of control

Bovine serum albumin (A7030, Sigma Co., Ltd., U.S.A.) (from UniProt P02769)
Activity of porcine pancreatic lipase (%) [4]: 105 % of control | Activity of cholesterol esterase (%) [5]: 120 % of control

Ovalbumin (A5503, Sigma Co., Ltd.) (from UniProt P01012)
Activity of porcine pancreatic lipase (%) [4]: 107 % of control | Activity of cholesterol esterase (%) [5]: 93.6 % of control

α2-purothionin (SEQ ID NO:2) (peptide)
Activity of porcine pancreatic lipase (%) [4]: 0 % of control

α-poly-L-lysine (3075, Peptide Research Co., Ltd.)
Activity of porcine pancreatic lipase (%), Tris buffer [3]: 6.9 % of control | Activity of porcine pancreatic lipase (Example 6, 1 mg/ml solution) [6]: 1.6 % of control

NCCCC[C@H](N)C(=O)NCCCC[C@H](N)C(=O)NCCCC[C@H](N)C(=O)NCCCC[C@H](N)C(=O)NCCCC[C@H](N)C(=O)O [ε-(L-lysine)5]
Activity of porcine pancreatic lipase (%) [1, 11]: 3.1%

β-Purothionin: purified β-purothionin (SEQ ID NO:3) isolated from the crude wheat purothionin mixture; misprinted α-Purothionin in Table 3 (KSCCKSTLGRNCYNLCRARGAQKLCANVCRCKLTSGLSCPKDFPK)
Activity of porcine pancreatic lipase ([7]; concentration of 0.04 mg/ml, separate experiment): 5.2% | Activity of porcine pancreatic lipase (%) [7]: 0% | Activity of porcine pancreatic lipase ([7]; solution diluted to protein concentration of 0.2 mg/ml): 0% | Activity of porcine pancreatic lipase (%) [1, 12]: 1.3%

β-Lactoglobulin: β-lactoglobulin (L0130, Sigma Co., Ltd.), non-basic comparison protein [reference compound]
Activity of porcine pancreatic lipase (%) [7]: 103.9% | Activity of cholesterol esterase (%) [8]: 89.9%

KKKKK [α-(L-lysine)5]
Activity of porcine pancreatic lipase (%) [1, 11]: 2.1%

α-poly-D-lysine hydrobromide (P7886, Sigma Co., Ltd.) (peptide)
Activity of porcine pancreatic lipase (Example 6, 1 mg/ml solution) [6]: 1.1 % of control

ε-(L-lysine)3 (peptide)
Activity of porcine pancreatic lipase (%) [2]: 89 % of control

α-poly-D-lysine hydrobromide
Activity of porcine pancreatic lipase [1]: 1.1

ε-(L-lysine)4 (SEQ ID NO: 6) (peptide)
Activity of porcine pancreatic lipase (%) [2]: 53.8 % of control

β-purothionin (SEQ ID NO:3) (peptide)
Activity of porcine pancreatic lipase (%) [4]: 0 % of control | Activity of porcine pancreatic lipase (%), Tris buffer [3]: 1.3 % of control | Activity of porcine pancreatic lipase, solution diluted to 0.2 mg/ml [9]: 0% | Activity of porcine pancreatic lipase, separate experiment at 0.04 mg/ml [10]: 5.2%

Protamine (P4005, Sigma Co., Ltd., U.S.A.)
Activity of porcine pancreatic lipase (%), Tris buffer [3]: 1.3 % of control

NCCCC[C@H](NC(=O)[C@H](CCCCN)NC(=O)[C@H](CCCCN)NC(=O)[C@@H](N)CCCCN)C(=O)O [α-(L-lysine)4] (H-KKKK-OH)
Activity of porcine pancreatic lipase (%) [1, 11]: 103.8%

Histone H3 (H4380, Sigma Co., Ltd.)
Activity of porcine pancreatic lipase (%), Tris buffer [3]: 2.3 % of control

B1: Ovalbumin: ovalbumin (A5503, Sigma Co., Ltd.), non-basic comparison protein (protein, UniProt P01012 2-386, looked up)
Ovalbumin: GSIGAASMEFCFDVFKELKVHHANENIFYCPIAIMSALAMVYLGAKDSTRTQINKVVRFDKLPGFGDSIEAQCGTSVNVHSSLRDILNQITKPNDVYSFSLASRLYAEERYPILPEYLQCVKELYRGGLEPINFQTAADQARELINSWVESQTNGIIRNVLQPSSVDSQTAMVLVNAIVFKGLWEKAFKDEDTQAMPFRVTEQESKPVQMMYQIGLFRVASMASEKMKILELPFASGTMSMLVLLPDEVSGLEQLESIINFEKLTEWTSSNVMEERKIKVYLPRMKMEEKYNLTSVLMAMGITDVFSSSANLSGISSAESLKISQAVHAAHAEINEAGREVVGSAEAGVDAASVSEEFRADHPFLFCIKHIATNAVLFFGRCVSP
Activity of porcine pancreatic lipase (%) [7]: 107.0% | Activity of cholesterol esterase (%) [8]: 93.6%

KKKKK [α-(L-lysine)5 (SEQ ID NO: 5)]
Activity of porcine pancreatic lipase (%) [2]: 2.1 % of control

KKKK [α-(L-lysine)4 (SEQ ID NO: 4)]
Activity of porcine pancreatic lipase (%) [2]: 104 % of control
